± gives the standard deviation of the averaged measurements.
Test: total protein half-life in vivo (active degradation + dilution); higher = more stable protein
[1] = E. coli NCM3722 delta-clpP delta-lon delta-hslV, growth: N-lim chemostat, doubling time 6 h
[2] = E. coli NCM3722 delta-clpP, growth: N-lim chemostat, doubling time 6 h
[3] = E. coli NCM3722 delta-hslV, growth: N-lim chemostat, doubling time 6 h
[4] = E. coli NCM3722 delta-lon, growth: N-lim chemostat, doubling time 6 h
[5] = E. coli NCM3722 delta-smpB, growth: N-lim chemostat, doubling time 6 h
[6] = wild type E. coli NCM3722, growth: C-lim chemostat, doubling time 3 h
[7] = wild type E. coli NCM3722, growth: C-lim chemostat, doubling time 6 h
[8] = wild type E. coli NCM3722, growth: C-lim chemostat, doubling time 12 h
[9] = wild type E. coli NCM3722, growth: N-lim chemostat, doubling time 6 h
[10] = wild type E. coli NCM3722, growth: N-lim chemostat, doubling time 12 h
[11] = wild type E. coli NCM3722, growth: P-lim chemostat, doubling time 6 h
[12] = wild type E. coli NCM3722, growth: P-lim chemostat, doubling time 12 h

MKFVKYFLILAVCCILLGAGSIYGLYRYIEPQLPDVATLKDVRLQIPMQIYSADGELIAQYGEKRRIPVTLDQIPPEMVKAFIATEDSRFYEHHGVDPVGIFRAASVALFSGHASQGASTITQQLARNFFLSPERTLMRKIKEVFLAIRIEQLLTKDEILELYLNKIYLGYRAYGVGAAAQVYFGKTVDQLTLNEMAVIAGLPKAPSTFNPLYSMDRAVARRNVVLSRMLDEGYITQQQFDQTRTEAINANYHAPEIAFSAPYLSEMVRQEMYNRYGESAYEDGYRIYTTITRKVQQAAQQAVRNNVLDYDMRHGYRGPANVLWKVGESAWDNNKITDTLKALPTYGPLLPAAVTSANPQQATAMLADGSTVALSMEGVRWARPYRSDTQQGPTPRKVTDVLQTGQQIWVRQVGDAWWLAQVPEVNSALVSINPQNGAVMALVGGFDFNQSKFNRATQALRQVGSNIKPFLYTAAMDKGLTLASMLNDVPISRWDASAGSDWQPKNSPPQYAGPIRLRQGLGQSKNVVMVRAMRAMGVDYAAEYLQRFGFPAQNIVHTESLALGSASFTPMQVARGYAVMANGGFLVDPWFISKIENDQGGVIFEAKPKVACPECDIPVIYGDTQKSNVLENNDVEDVAISREQQNVSVPMPQLEQANQALVAKTGAQEYAPHVINTPLAFLIKSALNTNIFGEPGWQGTGWRAGRDLQRRDIGGKTGTTNSSKDAWFSGYGPGVVTSVWIGFDDHRRNLGHTTASGAIKDQISGYEGGAKSAQPAWDAYMKAVLEGVPEQPLTPPPGIVTVNIDRSTGQLANGGNSREEYFIEGTQPTQQAVHEVGTTIIDNGEAQELF
total protein half-life in vivo [1]: 5.593 ± 0.05 h
total protein half-life in vivo [2]: 5.49 ± 0.056 h
total protein half-life in vivo [3]: 5.4453 ± 0.0032 h
total protein half-life in vivo [4]: 6.37 ± 1.3 h
total protein half-life in vivo [5]: 5.3 ± 0.31 h
total protein half-life in vivo [6]: 3.35 ± 0.36 h
total protein half-life in vivo [7]: 5.7 ± 0.38 h
total protein half-life in vivo [8]: 10.82 ± 0.022 h
total protein half-life in vivo [9]: 5.08 ± 0.37 h
total protein half-life in vivo [10]: 10.2 ± 0.59 h
total protein half-life in vivo [11]: 4.46 ± 0.3 h
total protein half-life in vivo [12]: 7.61 ± 0.27 h

MKFWRPGITGKLFLAIFATCIVLLISMHWAVRISFERGFIDYIKHGNEQRLQLLSDALGEQYAQHGNWRFLRNNDRFVFQILRSFEHDNSEDKPGPGMPPHGWRTQFWVVDQNNKVLVGPRAPIPPDGTRRPILVNGAEVGAVIASPVERLTRNTDINFDKQQRQTSWLIVALATLLAALATFLLARGLLAPVKRLVDGTHKLAAGDFTTRVTPTSEDELGKLAQDFNQLASTLEKNQQMRRDFMADISHELRTPLAVLRGELEAIQDGVRKFTPETVASLQAEVGTLTKLVDDLHQLSMSDEGALAYQKAPVDLIPLLEVAGGAFRERFASRGLKLQFSLPDSITVFGDRDRLMQLFNNLLENSLRYTDSGGSLQISAGQRDKTVRLTFADSAPGVSDDQLQKLFERFYRTEGSRNRASGGSGLGLAICLNIVEAHNGRIIAAHSPFGGVSITVELPLERDLQREV
total protein half-life in vivo [1]: 6.52 ± 0.079 h
total protein half-life in vivo [2]: 6.22 ± 0.26 h
total protein half-life in vivo [3]: 6.4 ± 0.69 h
total protein half-life in vivo [4]: 6.08 ± 0.73 h
total protein half-life in vivo [5]: 5.49 ± 0.43 h
total protein half-life in vivo [6]: 3.33 ± 0.098 h
total protein half-life in vivo [8]: 11.3 ± 2.3 h
total protein half-life in vivo [9]: 6.23 ± 0.92 h
total protein half-life in vivo [10]: 12.9 ± 0.13 h
total protein half-life in vivo [11]: 6.86 ± 0.52 h
total protein half-life in vivo [12]: 12.1 ± 1.4 h

MKGGKRVQTARPNRINGEIRAQEVRLTGLEGEQLGIVSLREALEKAEEAGVDLVEISPNAEPPVCRIMDYGKFLYEKSKSSKEQKKKQKVIQVKEIKFRPGTDEGDYQVKLRSLIRFLEEGDKAKITLRFRGREMAHQQIGMEVLNRVKDDLQELAVVESFPTKIEGRQMIMVLAPKKKQ [P0A707]
total protein half-life in vivo [1]: 5.98 ± 0.11 h
total protein half-life in vivo [2]: 5.66 ± 0.61 h
total protein half-life in vivo [3]: 5.02 ± 0.54 h
total protein half-life in vivo [4]: 6.492 ± 0.032 h
total protein half-life in vivo [5]: 5.12 ± 0.1 h
total protein half-life in vivo [6]: 3.35 ± 0.084 h
total protein half-life in vivo [7]: 5.555 ± 0.039 h
total protein half-life in vivo [8]: 10.5 ± 0.76 h
total protein half-life in vivo [9]: 4.69 ± 0.57 h
total protein half-life in vivo [10]: 10.9 ± 1.7 h
total protein half-life in vivo [11]: 4.89 ± 0.27 h
total protein half-life in vivo [12]: 10.4 ± 0.88 h

MKGRLLDAVPLSSLTGVGAALSNKLAKINLHTVQDLLLHLPLRYEDRTHLYPIGELLPGVYATVEGEVLNCNISFGGRRMMTCQISDGSGILTMRFFNFSAAMKNSLAAGRRVLAYGEAKRGKYGAEMIHPEYRVQGDLSTPELQETLTPVYPTTEGVKQATLRKLTDQALDLLDTCAIEELLPPELSQGMMTLPEALRTLHRPPPTLQLSDLETGQHPAQRRLILEELLAHNLSMLALRAGAQRFHAQPLSANDTLKNKLLAALPFKPTGAQARVVAEIERDMALDVPMMRLVQGDVGSGKTLVAALAALRAIAHGKQVALMAPTELLAEQHANNFRNWFAPLGIEVGWLAGKQKGKARLAQQEAIASGQVQMIVGTHAIFQEQVQFNGLALVIIDEQHRFGVHQRLALWEKGQQQGFHPHQLIMTATPIPRTLAMTAYADLDTSVIDELPPGRTPVTTVAIPDTRRTDIIDRVHHACITEGRQAYWVCTLIEESELLEAQAAEATWEELKLALPELNVGLVHGRMKPAEKQAVMASFKQGELHLLVATTVIEVGVDVPNASLMIIENPERLGLAQLHQLRGRVGRGAVASHCVLLYKTPLSKTAQIRLQVLRDSNDGFVIAQKDLEIRGPGELLGTRQTGNAEFKVADLLRDQAMIPEVQRLARHIHERYPQQAKALIERWMPETERYSNA
total protein half-life in vivo [1]: 5.83 ± 0.22 h
total protein half-life in vivo [2]: 5.05 ± 0.14 h
total protein half-life in vivo [3]: 5.74 ± 0.61 h
total protein half-life in vivo [4]: 5.32 ± 0.16 h
total protein half-life in vivo [5]: 5.01 ± 0.36 h
total protein half-life in vivo [7]: 6.17 ± 0.47 h
total protein half-life in vivo [8]: 10.5 ± 0.46 h
total protein half-life in vivo [9]: 4.91 ± 0.11 h
total protein half-life in vivo [10]: 8.73 ± 0.86 h
total protein half-life in vivo [11]: 6.25 ± 0.072 h
total protein half-life in vivo [12]: 11.3 ± 0.53 h

MKGSYKSRWVIVIVVVIAAIAAFWFWQGRNDSRSAAPGATKQAQQSPAGGRRGMRSGPLAPVQAATAVEQAVPRYLTGLGTITAANTVTVRSRVDGQLIALHFQEGQQVKAGDLLAEIDPSQFKVALAQAQGQLAKDKATLANARRDLARYQQLAKTNLVSRQELDAQQALVSETEGTIKADEASVASAQLQLDWSRITAPVDGRVGLKQVDVGNQISSGDTTGIVVITQTHPIDLVFTLPESDIATVVQAQKAGKPLVVEAWDRTNSKKLSEGTLLSLDNQIDATTGTIKVKARFNNQDDALFPNQFVNARMLVDTEQNAVVIPTAALQMGNEGHFVWVLNSENKVSKHLVTPGIQDSQKVVIRAGISAGDRVVTDGIDRLTEGAKVEVVEAQSATTPEEKATSREYAKKGARS
total protein half-life in vivo [1]: 6.33 ± 0.75 h
total protein half-life in vivo [4]: 6.148 ± 0.046 h
total protein half-life in vivo [5]: 6.07 ± 0.51 h
total protein half-life in vivo [7]: 6.25 ± 0.65 h
total protein half-life in vivo [8]: 12.3 ± 0.27 h
total protein half-life in vivo [9]: 6.1255 ± 0.0044 h
total protein half-life in vivo [10]: 13.2 ± 0.32 h
total protein half-life in vivo [11]: 5.8716 ± 0.00037 h
total protein half-life in vivo [12]: 10.5 ± 0.89 h

Source: the supplement of paper PMC11246515
